{"source": "paper PMC2749330", "about": "(The Biochemical journal, 2008)", "target": "recombinant CLEC-2, monomeric, as used in the surface plasmon resonance studies (UniProt Q9P126 55-229)", "sequence (Q9P126 55-229)": "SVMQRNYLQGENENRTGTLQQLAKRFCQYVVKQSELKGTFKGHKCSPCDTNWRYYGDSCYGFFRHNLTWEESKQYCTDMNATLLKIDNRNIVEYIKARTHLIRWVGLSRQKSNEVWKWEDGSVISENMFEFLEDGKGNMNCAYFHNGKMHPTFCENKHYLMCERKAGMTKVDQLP", "test": "SPR"}
{"binder": "recombinant podoplanin fused at its C-terminus to the human IgG1 Fc region (Fc fusion, UniProt Q86YL7 23-131, looked up) ASTGQPEDDTETTGLEGGVAMPGAEDDVVTPGTSEDRYKSGLTTLVATSVNSVTGIRIEDLPTSESTVHAQEQSPSATASNVATSHSTEKVDGDTQTTVEKDGLSTVTL", "values": [{"measurement": "Kd", "result": "24.5 ± 3.7", "unit": "µM"}]}
